These results are taken from patent JPH11127861A (dated 1999).

The target of the assay is HCV serine protease Cpro-2 (NS3 protein, p70) (C型肝炎ウイルス (株名 HCV-J)). Kind of assay: cell-based or functional assay.
As for TDYVLIW [CDR-H1-7 (7 amino acid peptide: the 5 residues of H chain CDR1 with one residue left at each end)], the “IC50, HCVプロテアーゼ阻害活性 (組換え基質MBP-NS5A/5B-ADK)” value (from here on “IC50, HCVプロテアーゼ阻害活性”) was found to be 165 µM.

With NSNPYYGRTSYNLKFKG [CDR-H2 (17 amino acid peptide, CDR2 of the mAb 8D4 H chain)], the “IC50, HCVプロテアーゼ阻害活性” value was 229 µM.

Consider GYSFTDYVLIWVKQS [CDR-H1 (15 amino acid peptide containing CDR1 of the mAb 8D4 H chain)], for which the “IC50, HCVプロテアーゼ阻害活性” value was 20.8 µM.
